Reference: the Immune Epitope Database (IEDB)

What was measured:
HLA-A*30:01 = experiment: IEDB peptide-MHC binding, purified MHC/competitive/radioactivity; filed as Kd, often an IC50 or EC50 that approximates it; ≥ and ≤ were set here for values at or beyond the usual limits of such assays
HLA-A*68:02 = experiment: as above
HLA-A*02:01 [1] = experiment: as above
HLA-B*07:02 = experiment: as above
HLA-B*35:01 = experiment: as above
HLA-A*24:02 [2] = experiment: IEDB peptide-MHC binding, purified MHC/competitive/fluorescence; ≥ and ≤ were set here for values at or beyond the usual limits of such assays
HLA-A*26:01 = experiment: IEDB peptide-MHC binding, purified MHC/competitive/radioactivity; filed as Kd, often an IC50 or EC50 that approximates it; ≥ and ≤ were set here for values at or beyond the usual limits of such assays
HLA-A*30:02 = experiment: as above
HLA-A*01:01 = experiment: as above
HLA-A*29:02 = experiment: as above
HLA-A*32:01 = experiment: as above
HLA-A*23:01 = experiment: as above
HLA-A*24:02 [3] = experiment: as above; conditions: source organism: Mammarenavirus juninense
HLA-B*15:01 = experiment: as above
HLA-B*51:01 = experiment: as above; conditions: source organism: Dengue virus 2 Jamaica/1409/1983
HLA-B*53:01 = experiment: as above
HLA-A*02:01 [4] = experiment: IEDB peptide-MHC binding, purified MHC/competitive/fluorescence; ≥ and ≤ were set here for values at or beyond the usual limits of such assays
HLA-A*02:02 = experiment: IEDB peptide-MHC binding, purified MHC/competitive/radioactivity; filed as Kd, often an IC50 or EC50 that approximates it; ≥ and ≤ were set here for values at or beyond the usual limits of such assays
HLA-A*02:06 = experiment: as above
HLA-A*02:03 = experiment: as above
HLA-A*03:01 = experiment: as above
HLA-A*31:01 = experiment: as above
HLA-A*11:01 = experiment: as above
HLA-A*68:01 = experiment: as above
HLA-A*33:01 = experiment: as above; conditions: source organism: Vaccinia virus WR
[5] = source organism: Vaccinia virus WR
[6] = source organism: Dengue virus 4 Philippines/H241/1956
[7] = source organism: Zaire ebolavirus
[8] = source organism: Lymphocytic choriomeningitis virus (strain Armstrong)
[9] = source organism: Mammarenavirus juninense
[10] = source organism: Dengue virus 2 Jamaica/1409/1983
[11] = source organism: Trypanosoma cruzi
[12] = source organism: Dengue virus 3 Martinique/1243/1999
[13] = source organism: Hepacivirus hominis

## AAKGASMTL
HLA-A*30:01; [5]
  Kd: 0.998 nM

## ALALEEKRRL
HLA-A*68:02; source organism: Homo sapiens
  Kd: ≥ 63800 nM
HLA-A*02:01 [1]; source organism: Homo sapiens
  Kd: 12200 nM

## APSTGSASSM
HLA-B*07:02; [6]
  Kd: 19.3 nM
HLA-B*35:01; [6]
  Kd: 377 nM

## AYQGDYKLF
HLA-A*24:02 [2]; [7]
  IC50: 540 nM

## DSEEYHLLY
HLA-A*26:01; [8]
  Kd: 14400 nM
HLA-A*30:02; [8]
  Kd: 3750 nM
HLA-A*01:01; [8]
  Kd: 2.78 nM
HLA-A*29:02; [8]
  Kd: 289 nM
HLA-A*32:01; [8]
  Kd: ≥ 77800 nM
HLA-A*30:01; [8]
  Kd: 11300 nM

## EDAMPGVLSY
HLA-A*26:01; [9]
  Kd: 1810 nM
HLA-A*23:01; [9]
  Kd: 16400 nM
HLA-A*24:02 [3]
  Kd: ≥ 46400 nM
HLA-A*30:02; [9]
  Kd: 15500 nM
HLA-A*01:01; [9]
  Kd: 10600 nM
HLA-A*29:02; [9]
  Kd: 11100 nM
HLA-A*32:01; [9]
  Kd: ≥ 69900 nM
HLA-A*30:01; [9]
  Kd: ≥ 70400 nM

## EGVVAFLIL
HLA-A*24:02 [2]; [7]
  IC50: ≥ 80300 nM

## EIAKYGHSF
HLA-B*15:01; [5]
  Kd: 57.6 nM

## FAISYCRAF
HLA-B*15:01; [5]
  Kd: 76.1 nM

## FPQSNAPIM
HLA-B*07:02; [10]
  Kd: 12.1 nM
HLA-B*51:01
  Kd: 632 nM
HLA-B*53:01; [10]
  Kd: 1.8 nM
HLA-B*35:01; [10]
  Kd: 13600 nM

## FSAWISHRP
HLA-A*24:02 [2]; source organism: Variola virus
  IC50: 517 nM
HLA-A*02:01 [4]; source organism: Variola virus
  IC50: 38100 nM

## GAQHSTTLF
HLA-A*24:02 [2]; source organism: Sudan ebolavirus
  IC50: 42100 nM

## GLITCKAFG
HLA-A*24:02 [2]; [5]
  IC50: ≥ 168000 nM
HLA-A*02:01 [4]; [5]
  IC50: 60500 nM

## GLLPSLLLLG
HLA-A*02:02; [11]
  Kd: 261 nM
HLA-A*68:02; [11]
  Kd: 3750 nM
HLA-A*02:01 [1]; [11]
  Kd: 120 nM
HLA-A*02:06; [11]
  Kd: 127 nM
HLA-A*02:03; [11]
  Kd: 137 nM

## HQHLAIMFK
HLA-A*30:01; [5]
  Kd: 4.99 nM

## ISKIPGGAMY
HLA-B*15:01; [12]
  Kd: 136 nM
HLA-A*30:02; [12]
  Kd: 9.35 nM
HLA-A*01:01; [12]
  Kd: ≥ 23800 nM

## IYTSGKRSN
HLA-A*24:02 [2]; [7]
  IC50: 6370 nM

## KADRVIDPRR
HLA-A*30:01; [12]
  Kd: 5180 nM

## KLFMALVAF
HLA-B*15:01; [10]
  Kd: 198 nM
HLA-A*23:01; [10]
  Kd: 4740 nM
HLA-A*32:01; [10]
  Kd: 37.8 nM

## KLSGLGFNAV
HLA-A*02:02; [13]
  Kd: 5.4 nM
HLA-A*68:02; [13]
  Kd: 6110 nM
HLA-A*02:01 [1]; [13]
  Kd: 19.3 nM
HLA-A*02:06; [13]
  Kd: 24.5 nM
HLA-A*02:03; [13]
  Kd: 2.8 nM

## KQERGKSLLF
HLA-B*15:01; source organism: Dengue virus 1 Brazil/97-11/1997
  Kd: 118 nM

## KTFDTEYPK
HLA-A*03:01; [6]
  Kd: 26.1 nM
HLA-A*31:01; [6]
  Kd: 29.8 nM
HLA-A*11:01; [6]
  Kd: 126 nM
HLA-A*32:01; [6]
  Kd: 2800 nM
HLA-A*68:01; [6]
  Kd: 104 nM
HLA-A*30:01; [6]
  Kd: 80 nM

## KTGESSRCY
HLA-A*26:01; [8]
  Kd: ≥ 77900 nM
HLA-A*30:02; [8]
  Kd: 101 nM
HLA-A*01:01; [8]
  Kd: 7280 nM
HLA-A*29:02; [8]
  Kd: 4380 nM
HLA-A*32:01; [8]
  Kd: ≥ 77800 nM
HLA-A*30:01; [8]
  Kd: 3520 nM

## KYKPVYSYV
HLA-A*30:01; [5]
  Kd: 0.74 nM

## KYYIKNIGN
HLA-A*24:02 [2]; source organism: Vaccinia virus
  IC50: ≥ 101000 nM

## LAMTDTTPF
HLA-B*15:01; [6]
  Kd: 3.92 nM
HLA-B*53:01; [6]
  Kd: 94.3 nM
HLA-B*35:01; [6]
  Kd: 1.67 nM

## LARRPTPKK
HLA-A*03:01; [5]
  Kd: 185 nM
HLA-A*33:01
  Kd: 19300 nM
HLA-A*31:01; [5]
  Kd: 70.4 nM
HLA-A*11:01; [5]
  Kd: 431 nM
HLA-A*68:01; [5]
  Kd: 430 nM
HLA-A*30:01; source organism: Vaccinia virus Copenhagen
  Kd: 10.4 nM

## LGSLGCKPLT
HLA-A*30:01; source organism: Dengue virus 1 Singapore/S275/1990
  Kd: 1410 nM

## LKVFLPNPA
HLA-A*24:02 [2]; source organism: Variola virus
  IC50: 20300 nM

## LLFILFYFA
HLA-B*15:01; [5]
  Kd: 242 nM

## LPEYGTLGL
HLA-B*07:02; [12]
  Kd: 40.1 nM
HLA-B*53:01; [12]
  Kd: 545 nM

## LQIFSNSVG
HLA-B*15:01; [5]
  Kd: 2.07 nM

## LSRNSTHEM
HLA-B*15:01; [12]
  Kd: 39.7 nM
HLA-A*30:01; [12]
  Kd: 106 nM

## LTYFCFVAL
HLA-B*15:01; [5]
  Kd: 28.5 nM
HLA-A*32:01; [5]
  Kd: 615 nM

## LVKRFSTGLF
HLA-B*15:01; [6]
  Kd: 256 nM

## LYLVDYGLV
HLA-A*24:02 [2]; [5]
  IC50: 212 nM
HLA-A*02:01 [4]; [5]
  IC50: ≥ 89800 nM
